Experimental data: patent publication US20140323393A1 (CREATIVE BIO PEPTIDES, published 2014)
Where no end group is shown, it is not given here. [ ]: non-standard residue; d: D form.

Target: Toll-like receptor 4 (TLR4) on monocyte-derived iDC
Assay: cell-based or functional assay

B1: All-D-TTNYT (RAP-103) (peptide)
peptide: [dT][dT][dN][dY][dT]
IC50 for inhibition of LPS (100 ng/mL) induced TNF-α secretion in monocyte-derived iDC (ELISA of supernatants, FIG. 5): ~0.1 pM
